Molecular target: cynomolgus αV (HEK-293 cells transfected with cynomolgus αV alone) (cynomolgus)
Assay: FACS, HEK-293 transfected with cynomolgus αV

cynomolgus αV (HEK-293 cells transfected with cynomolgus αV alone) (cynomolgus), sequence (chain, as listed by the source): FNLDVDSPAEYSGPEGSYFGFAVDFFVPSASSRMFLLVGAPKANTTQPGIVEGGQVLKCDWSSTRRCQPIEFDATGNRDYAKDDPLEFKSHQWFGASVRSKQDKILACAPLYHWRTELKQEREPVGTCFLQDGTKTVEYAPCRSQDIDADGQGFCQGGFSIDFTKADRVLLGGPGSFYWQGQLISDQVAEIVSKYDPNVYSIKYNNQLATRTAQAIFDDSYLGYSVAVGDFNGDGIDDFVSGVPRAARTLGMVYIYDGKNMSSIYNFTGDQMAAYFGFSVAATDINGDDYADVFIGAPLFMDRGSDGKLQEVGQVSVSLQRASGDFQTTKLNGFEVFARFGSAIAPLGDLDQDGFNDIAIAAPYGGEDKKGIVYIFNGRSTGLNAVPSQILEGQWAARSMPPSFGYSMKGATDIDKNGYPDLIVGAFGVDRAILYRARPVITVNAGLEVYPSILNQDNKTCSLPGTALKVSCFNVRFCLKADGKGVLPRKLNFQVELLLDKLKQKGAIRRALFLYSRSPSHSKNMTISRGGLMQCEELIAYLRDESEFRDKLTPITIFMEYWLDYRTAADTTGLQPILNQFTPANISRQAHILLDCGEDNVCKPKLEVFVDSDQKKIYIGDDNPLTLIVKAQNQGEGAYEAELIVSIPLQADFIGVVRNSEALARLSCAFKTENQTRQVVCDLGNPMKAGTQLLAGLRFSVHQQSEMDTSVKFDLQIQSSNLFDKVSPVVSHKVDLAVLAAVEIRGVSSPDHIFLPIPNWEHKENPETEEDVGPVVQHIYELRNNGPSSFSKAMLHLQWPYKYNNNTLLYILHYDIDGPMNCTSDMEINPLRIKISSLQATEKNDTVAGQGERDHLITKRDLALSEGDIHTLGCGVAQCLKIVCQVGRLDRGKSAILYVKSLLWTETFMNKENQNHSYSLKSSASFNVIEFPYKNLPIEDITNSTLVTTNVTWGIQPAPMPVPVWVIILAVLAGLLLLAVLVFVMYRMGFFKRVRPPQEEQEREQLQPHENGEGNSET

B1: sc 133 (antibody, V domains shown)
VH: QVQLVQSGAEVKKPGASVKVSCKASGYTFTGYYMHWVRQAPGQGLEWMGWINPKSGDTNYAQKFQGRVTLTRDTSTSTAYMELSRLRSDDTAVYYCARRLDVWGQGTTVTVSS
VL: QSVLTQPPSVSAAPGQKVTISCSGSSSNIGNNYVSWYQQLPGTAPKLLIYDNNKRPSGIPDRFSGSKSGTSATLGITGLQTGDEADYYCGTWNSSLSAGYVFGTGTKVTV
percent of cells shifted: 5%

— patent publication US20080057063A1
